# Assay results taken from PMC8091058, “Distinct intramolecular interactions regulate autoinhibition of vinculin binding in αT-catenin and αE-catenin” (The Journal of Biological Chemistry, 2021).
# B1: vinculin D1 (aa 1–259) (domain or fragment, UniProt P12003 1-259, looked up)
# chain: MPVFHTRTIESILEPVAQQISHLVIMHEEGEVDGKAIPDLTAPVSAVQAAVSNLVRVGKETVQTTEDQILKRDMPPAFIKVENACTKLVRAAQMLQADPYSVPARDYLIDGSRGILSGTSDLLLTFDEAEVRKIIRVCKGILEYLTVAEVVETMEDLVTYTKNLGPGMTKMAKMIDERQQELTHQEHRVMLVNSMNTVKELLPVLISAMKIFVTTKNTKSQGIEEALKNRNFTVEKMSAEINEIIRVLQLTSWDEDAWA
# notes: vinculin D1 fragment, aa 1-259, the first 2 four-helix bundles; in pGEX-TEV; also called vinculin aa 1 to 259 (D1); vinculin N-terminus; source: E. coli BL21-Gold, purified (glutathione-agarose, TEV cleavage, Mono Q or Mono S, S200)
# Biological target: T1, αT-catenin M1-M3 (aa 260–626) (Mus musculus, UniProt Q65CL1 260-626)
# T1 construct: αT-catenin, Mus musculus, M1-M3, aa 260-626; in pGEX-TEV; also called αT-catenin M-region; αT-catenin M1-M3 (260–626); source: E. coli BL21-Gold, purified (glutathione-agarose, TEV cleavage, Mono Q or Mono S, S200)
# T1 sequence (looked up): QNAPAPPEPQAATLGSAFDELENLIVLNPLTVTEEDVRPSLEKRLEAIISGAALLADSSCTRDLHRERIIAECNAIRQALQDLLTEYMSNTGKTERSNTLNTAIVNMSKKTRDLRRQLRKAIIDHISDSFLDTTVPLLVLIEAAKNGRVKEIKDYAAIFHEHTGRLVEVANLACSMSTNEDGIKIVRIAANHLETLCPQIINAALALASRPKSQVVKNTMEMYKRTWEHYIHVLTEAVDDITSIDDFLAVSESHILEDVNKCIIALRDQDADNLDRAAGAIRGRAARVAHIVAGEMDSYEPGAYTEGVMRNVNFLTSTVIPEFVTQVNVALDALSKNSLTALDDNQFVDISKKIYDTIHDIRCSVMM
# Test: ITC; vinculin D1 titrated into an equimolar mixture of αT-catenin N1-N2 and M1-M3; 25 °C; 20 mM Hepes pH 8.0, 150 mM NaCl, 1 mM TCEP
# Settings: both partners purified
binder,measurement,value
B1,Kd,50.1 ± 17.5 nM
same,dH,-3.1 ± 0.1 kcal/mol
